Consider two molecules from patent publication US20250304670A1 (AstraZeneca / MedImmune, published 2025).

The target in assay [1] is T1, Biotinylated Human Amyloid Beta 1-42 peptide (human, N-terminal biotin).
T1 construct: synthetic (rPeptide A1117 or Bachem H-5642); also called N-terminal biotin Abeta 1-42; synthetic biotinylated human Amyloid beta 1-42 peptide
Put plainly: HTRF direct binding: dilution series of purified His-tagged Fab with biotinylated human Amyloid beta 1-42 peptide, streptavidin cryptate and anti-6his-XL665 (sections 1.3, 1.4). The procedure:
(§1) Selection outputs were screened as unpurified bacterial periplasmic extracts containing sFab, prepared in 50 mM MOPS buffer pH 7.4, 0.5 mM EDTA and 0.5 M sucrose. Ten microlitres of unpurified sFab samples were added to a Costar® 384 well assay plate (Corning, USA; cat: 3676). This was followed by the addition of 5 μl of 20 nM synthetic human Amyloid beta 1-42 and 5 μl of a combined solution of 6 nM streptavidin cryptate and 20 nM anti-his-XL665. Non-specific binding wells (negative controls) were defined for each plate by using a negative control unpurified sFab in place of the test sFab sample. Cross-reactive sFab clones were identified using a concurrent assay with human Amyloid beta 1-40 peptide. […] Assay plates were incubated for 4 hours at room temperature prior to reading time resolved fluorescence on an EnVision plate reader (PerkinElmer, USA) using an excitation wavelength of 320 nm and measuring the emission at 620 nm and 665 nm (100 flashes).
(§2) The sFab with unique protein sequences were expressed in E. coli and purified by affinity chromatography (essentially as described (Bannister et al., 2006)). The Amyloid beta binding profile of each purified sFab was determined by testing a dilution series of the purified sFab in the HTRF™ assay described in section 1.3, substituting the unpurified sFab periplasmic preparation with the purified sFab.

Assay [2] has as its target T2, Biotinylated Murine Amyloid Beta 1-42 peptide (murine, not fully specified; N-terminal biotin).
T2 construct: Anaspec 61718-01
T2 peptide: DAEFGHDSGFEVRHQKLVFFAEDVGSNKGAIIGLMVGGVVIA
Kind of assay: direct binding HTRF, purified sFab and biotinylated peptide.

For assay [3], the target named is T3, Biotinylated Human Amyloid Beta 1-40 peptide (human, N-terminal biotin).
T3 construct: synthetic
Put plainly: HTRF direct binding: dilution series of purified His-tagged Fab with biotinylated human Amyloid beta 1-40 peptide, streptavidin cryptate and anti-6his-XL665 (sections 1.3, 1.4). The procedure:
as §1, §2

For assay [4], the target named is T4, Biotinylated Scrambled Amyloid Beta 1-42 peptide (N-terminal biotin).
T4 construct: Anaspec custom synthesis; control peptide; also called scrambled human Amyloid beta 1-42 peptide; biotinylated scrambled human Amyloid beta 1-42
T4 peptide: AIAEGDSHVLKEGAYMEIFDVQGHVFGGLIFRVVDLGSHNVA
Kind of assay: direct binding HTRF, purified sFab and scrambled peptide.

For assay [5], the target named is T5, Human Amyloid Beta 1-42 peptide (human).
T5 construct: synthetic, unlabelled; also used here for the endogenous peptide of human plasma in the depletion assay; also called unlabelled human Amyloid beta 1-42; synthetic human Amyloid beta 1-42 peptide
Put plainly: SPR (BIAcore T-100), peptide over amine-coupled IgG, 1:1 Langmuir fit. On the procedure:
The affinity of binding between each test IgG and human Amyloid beta 1-42 was estimated using assays in which the antibody was covalently coupled by amine linkage to a proprietary CM3 chip surface to a final surface density of approximately 2,000 RU. The chip surface was regenerated between cycles by a single 40 second injection of 10 mM Glycine pH 2.0 to remove ligand bound to the antibody.
Blank reference flow-cell data were subtracted from each IgG dataset and a zero-concentration buffer blank was double-reference subtracted from the main dataset to reduce the impact of any buffer artefacts or non-specific binding effects. An appropriate binding model was then fitted simultaneously to the data from each analyte titration using the BIAevaluation software.

The target of assay [6] is T6, human Amyloid beta pyro 3-42 peptide (human, pyroglutamate at residue 3 (the N-terminal residue)).
T6 construct: the pyro form (Anaspec 29907) has no entry of its own; also called Abeta pyro-3-42; Abeta Pyro-3-42
Kind of assay: TR-FRET peptide competition against biotinylated human Amyloid beta 1-42. The procedure: (§3) This involved the use of Europium cryptate labelled anti-human Fc IgG (CisBio International, France; cat: 61 HFCKLB) and XL665 labelled streptavidin (CisBio International, France; cat: 611SAXLB) TR-FRET detection reagents.
(§4) Experiments were set up in Costar 384 well shallow bottom microtitre plates. […] 5 μl of assay buffer only was added to the negative binding assay control wells. […] 5 μl per well of each test peptide serial dilution was then transferred onto the 384 well assay plate. 5 μl of assay buffer only was added to the total and negative binding assay control wells. […] Finally, a combined solution was prepared containing Europium cryptate labelled anti-human Fc (2.4 nM) and XL665 labelled streptavidin (60 nM). 5 μl per well of this solution was added to all wells of the 384 well assay plate such that the final concentrations of Europium cryptate labelled anti-human Fc and XL665 labelled streptavidin were 0.6 nM and 15 nM, respectively.

Assay [7] deals with T7, Human Amyloid Beta 1-16 truncated peptide (human).
T7 construct: synthetic, unlabelled; also called Abeta 1-16
T7 peptide: DAEFRHDSGYEVHHQK
Described as above. The procedure:
as §3, §4

The target of assay [8] is T8, Human Amyloid Beta 1-40 peptide (human).
T8 construct: synthetic, unlabelled; also called unlabelled human Amyloid beta 1-40
Kind of assay: TR-FRET peptide competition: dilution series of unlabelled peptide against 1.5 nM biotinylated human Amyloid beta 1-42 peptide for 0.28 nM Abet0144-GL IgG1-TM (section 2.10). The procedure:
as §3, §4

For assay [9], the target named is T9, Amyloid beta plaques on human Alzheimer's Disease brain sections (human, UniProt P05067 672-713).
T9 construct: mixture of Amyloid beta species in tissue; also called native Amyloid beta; human AD brain sections
Put plainly: in vitro immunohistochemistry, core plaques.

For assay [10], the target named is T10, Amyloid beta plaques on Tg2576 mouse brain sections (human (transgene in Tg2576 mice), UniProt P05067 672-713).
T10 construct: mixture of Amyloid beta species in tissue; also called Tg2576 brain sections; Amyloid beta plaques in aged Tg2576 mice
Kind of assay: in vitro immunohistochemistry, core plaques.

For assay [11], the target named is T4, Biotinylated Scrambled Amyloid Beta …. Put plainly: SPR (BIAcore T-100), antibody amine-coupled to a CM3 chip, peptide analyte at 400 nM (section 2.9). On the procedure: (§5) The affinity of binding between each test IgG and each peptide was estimated using assays in which the antibody was covalently coupled by amine-linkage to a proprietary CM3 chip surface to a final surface density of approximately 2,000 RU. The chip surface was regenerated between cycles by a single 40 second injection of 10 mM Glycine pH 2.0 to remove ligand bound to the antibody.
(§6) Blank reference flow-cell data were subtracted from each IgG dataset and a zero-concentration buffer blank was double-reference subtracted from the main dataset to reduce the impact of any buffer artefacts or non-specific binding effects.

Assay [12] deals with T3, Biotinylated Human Amyloid Beta 1-40 …. The description is as above. On the procedure:
as §5, §6

Residue numbers refer to the chain shown, from its start. Names may count otherwise.

T3 sequence (peptide, as listed by the source): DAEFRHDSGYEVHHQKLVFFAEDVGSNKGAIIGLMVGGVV
T8 sequence (peptide, as listed by the source): as above

B1: Abet0007 sFab (Fab, V domains shown)
VH: EVQLLESGGGLVQPGGSLRLSCAASGFTFSVYTMWWVRQAPGKGLEWVSVIGSSGGTTVYADSVKGRFTISRDNSKNTLYLQMNSLRAEDTAVYYCAREGQQLVRPYYYYGMDVWGQGTLVTVSS
VL: QSVLTQPPSVSVSPGQTASITCSGHNLEDKFASWYQQKSGQSPVLVIYRDDKRPSGIPERFSASNSGHTATLTISGTQATDEADYYCQAQDSTTRVFGGGTKLTVL
notes: soluble single chain Fab fragment (sFab) from the Dyax Fab310-Lambda library, histidine tagged, purified from E. coli; also called Abet0007 Fab; purified Abet0007 Fab
Turning to B1, the “EC50 (read off the curve)” value in [1] was around 6 nM. Also, the figures for the binding result in [2], in [3] and in [4] were “binds”, “no binding (tested: 1e-7 M (Log M -7))” and “no binding”, respectively.

B2: Abet0144-GL IgG1-TM (antibody, V domains shown)
VH: B1 VH with G100W, Q101M, Q102D, L103H, V104S
VL: B1 VL with Q1S, S2Y, V3E, S39P, T80M
notes: human IgG1 with the triple mutation L234F/L235E/P331S (TM), human lambda light chain; also called Abet0144-GL (germlined) IgG1-TM
In assay [5], B2 displayed a Kd of 9.5 nM. This molecule had an off-rate (koff) in assay [5] of 0.00197 s⁻¹. The molecule also had an association rate constant (kon) in [5] of 208000 M⁻¹ s⁻¹. Further, the binding result in assay [6] is listed as “binds”; in assay [7], “no binding (tested: 10 uM)”; in [8], “no binding (tested: 1e-5 M (logM -5))”; in assay [11], “no binding (tested: 400 nM)”; in assay [12], “no binding (tested: 400 nM)”. Moreover, the results for the “plaque staining score (0-4)” value in assay [9] and in assay [10] were 1.5 and 1, respectively.
